This note sets out measurements from paper PMC12207370, “Macrocyclic Peptide Probes for Immunomodulatory Protein CD59: Potent Modulators of Bacterial Toxin Activity and Antibody‐Dependent Cytotoxicity” (Angewandte Chemie (International Ed. in English), 2025).

In the experiment the target is T1, biotinylated CD59 (Homo sapiens, UniProt P13987).
T1 construct: Recombinant soluble human CD59 with an additional C-terminal cysteine residue
T1 sequence (P13987 26-102 limits assumed): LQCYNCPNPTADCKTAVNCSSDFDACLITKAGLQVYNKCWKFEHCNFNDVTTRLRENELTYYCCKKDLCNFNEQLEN
In words: mRNA-display cyclic peptide screen against CD59-biotin, NGS abundance after 6th selection round. The note with it: for Percentage Seq I: counts normalised by total counts of sample Seq I; for Percentage Seq I / Percentage Seq II: percentage of the pool; for Percentage Seq I / Percentage Seq II / Percentage Average / Percentage of the pool, averaged across the two sequencing samples / Percentage of the pool, Seq I / Percentage of the pool, Seq II: sheet R6; for Percentage Seq II: counts normalised by total counts of sample Seq II; for Percentage Average: percentage of the pool averaged across the two sequencing samples; for Counts Seq I / Counts Seq II: raw NGS counts of peptide sequence; for Counts Seq I: sequencing sample Seq I; for Counts Seq I / Counts Seq II / Counts (raw counts for peptide sequence), Seq I / Counts (raw counts for peptide sequence), Seq II: sheet R6 (6th selection round); for Counts Seq II: sequencing sample Seq II; for Counts (raw counts for peptide sequence), Seq I: NGS sample Seq I; for Counts (raw counts for peptide sequence), Seq II: NGS sample Seq II; for Percentage of the pool, averaged across the two sequencing samples: average of Seq I and Seq II; for Percentage of the pool, Seq I: counts normalised by total counts of NGS sample Seq I; for Percentage of the pool, Seq II: counts normalised by total counts of NGS sample Seq II. The method in brief:
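Peptide–mRNA fusions were made by in vitro translation with a customised PURE express kit. The kit lacked release factor 1 and methionine and was supplemented with […] initiator tRNA carrying N-chloroacetyl-d-tyrosine. Thioether macrocycles were formed, then enriched and amplified over iterative rounds on CD59-biotin immobilised on streptavidin beads. NGS read counts per sequence were recorded after the 6th selection round.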

Turning to CFSHRPGPSI, the “Percentage Seq I” value is 0.147%, the “Percentage Seq II” value is on record as 0.132%, the “Percentage Average” value came out at 0.140% and the “Counts Seq I” value is 642. Also, the “Counts Seq II” value is listed as 57.

With SCSEWRRGTRS, the “Counts (raw counts for peptide sequence), Seq I” value is given as 43; the “Counts (raw counts for peptide sequence), Seq II” value stood at 4; the “Percentage of the pool, averaged across the two sequencing samples” value stood at 0.010%; the “Percentage of the pool, Seq I” value was found to be 0.010%. Besides, the “Percentage of the pool, Seq II” value turned out to be 0.009%.

Consider CFANRLYGSDSR, for which the “Percentage Seq I” value is reported as 0.040%, the “Percentage Seq II” value came to 0.039%, the “Percentage Average” value turned out to be 0.040% and the “Counts Seq I” value was determined as 177. The “Counts Seq II” value came to 17.

As to CFLYRNNPDSV, the “Percentage Seq I” value was 0.069%, the “Percentage Seq II” value is 0.067%, the “Percentage Average” value turned out to be 0.068% and the “Counts Seq I” value is listed as 303. Also, the “Counts Seq II” value worked out at 29.

Turning to YVTGNRDHTRG, the “Counts (raw counts for peptide sequence), Seq I” value amounted to 66; the “Counts (raw counts for peptide sequence), Seq II” value is reported as 8; the “Percentage of the pool, averaged across the two sequencing samples” value is 0.017%; the “Percentage of the pool, Seq I” value is 0.015%. Besides, the “Percentage of the pool, Seq II” value came out at 0.019%.

Turning to CYGGRTFIYACS, the “Percentage Seq I” value worked out at 0.019%, the “Percentage Seq II” value turned out to be 0.021%, the “Percentage Average” value is listed as 0.020% and the “Counts Seq I” value is on record as 83. For the same substance, the “Counts Seq II” value amounted to 9.

On to FVSGNRDHTRG, for which the “Counts (raw counts for peptide sequence), Seq I” value was 51; the “Counts (raw counts for peptide sequence), Seq II” value is recorded as 5; the “Percentage of the pool, averaged across the two sequencing samples” value was 0.012%; the “Percentage of the pool, Seq I” value is given as 0.012%. Besides, the “Percentage of the pool, Seq II” value was 0.012%.

As for FIRGDSTSVLF, the “Counts (raw counts for peptide sequence), Seq I” value was 54; the “Counts (raw counts for peptide sequence), Seq II” value was 6; the “Percentage of the pool, averaged across the two sequencing samples” value was found to be 0.013%; the “Percentage of the pool, Seq I” value was found to be 0.012%. The “Percentage of the pool, Seq II” value is listed as 0.014%.

Turning to CFSRRLAAGAI, the “Counts (raw counts for peptide sequence), Seq I” value came to 35; the “Counts (raw counts for peptide sequence), Seq II” value was 5; the “Percentage of the pool, averaged across the two sequencing samples” value is reported as 0.010%; the “Percentage of the pool, Seq I” value worked out at 0.008%. Moreover, the “Percentage of the pool, Seq II” value is recorded as 0.012%.

Consider WIRGNRDESLG, for which the “Counts (raw counts for peptide sequence), Seq I” value was 46; the “Counts (raw counts for peptide sequence), Seq II” value is reported as 7; the “Percentage of the pool, averaged across the two sequencing samples” value was determined as 0.013%; the “Percentage of the pool, Seq I” value came to 0.011%. Moreover, the “Percentage of the pool, Seq II” value amounted to 0.016%.

With CYGGRTFIYAWT, the “Percentage Seq I” value came to 0.043%, the “Percentage Seq II” value stood at 0.035%, the “Percentage Average” value came to 0.039% and the “Counts Seq I” value stood at 190. For the same substance, the “Counts Seq II” value is 15.

As for CYGGRTFTYAWS, the “Percentage Seq I” value came out at 0.241%, the “Percentage Seq II” value is 0.306%, the “Percentage Average” value stood at 0.274% and the “Counts Seq I” value came to 1056. Further, the “Counts Seq II” value amounted to 132.

As to GRVRTCPVIV, the “Counts (raw counts for peptide sequence), Seq I” value was 65; the “Counts (raw counts for peptide sequence), Seq II” value amounted to 5; the “Percentage of the pool, averaged across the two sequencing samples” value was 0.013%; the “Percentage of the pool, Seq I” value is 0.015%. For the same substance, the “Percentage of the pool, Seq II” value is reported as 0.012%.

As to CFAARLSNGDS, the “Percentage Seq I” value was 0.319%, the “Percentage Seq II” value is listed as 0.362%, the “Percentage Average” value came out at 0.341% and the “Counts Seq I” value is reported as 1397. Moreover, the “Counts Seq II” value is given as 156.

On to SACGNRQIQYY, for which the “Counts (raw counts for peptide sequence), Seq I” value came to 51; the “Counts (raw counts for peptide sequence), Seq II” value came out at 6; the “Percentage of the pool, averaged across the two sequencing samples” value came to 0.013%; the “Percentage of the pool, Seq I” value is recorded as 0.012%. Also, the “Percentage of the pool, Seq II” value was determined as 0.014%.

With SSYRELAHLPC, the “Percentage Seq I” value is 0.031%, the “Percentage Seq II” value came out at 0.046%, the “Percentage Average” value came to 0.039% and the “Counts Seq I” value was 135. The “Counts Seq II” value is 20.

Turning to HCWVRGGRNYT, the “Percentage Seq I” value was found to be 0.024%, the “Percentage Seq II” value was 0.014%, the “Percentage Average” value is 0.019% and the “Counts Seq I” value turned out to be 104. Also, the “Counts Seq II” value is 6.

For the substance YSCPDWVRGSRT, the “Counts (raw counts for peptide sequence), Seq I” value was found to be 36; the “Counts (raw counts for peptide sequence), Seq II” value amounted to 6; the “Percentage of the pool, averaged across the two sequencing samples” value came out at 0.011%; the “Percentage of the pool, Seq I” value is reported as 0.008%. Moreover, the “Percentage of the pool, Seq II” value was determined as 0.014%.

In the case of CSSLRARGWI, the “Counts (raw counts for peptide sequence), Seq I” value was found to be 75; the “Counts (raw counts for peptide sequence), Seq II” value was 3; the “Percentage of the pool, averaged across the two sequencing samples” value is 0.012%; the “Percentage of the pool, Seq I” value is recorded as 0.017%. Further, the “Percentage of the pool, Seq II” value is recorded as 0.007%.

With CFAHRITDPDTQ, the “Percentage Seq I” value is 0.023%, the “Percentage Seq II” value is reported as 0.019%, the “Percentage Average” value is on record as 0.021% and the “Counts Seq I” value was 100. The “Counts Seq II” value turned out to be 8.

For SAWGNRLIQYY, the “Counts (raw counts for peptide sequence), Seq I” value came to 80; the “Counts (raw counts for peptide sequence), Seq II” value is 5; the “Percentage of the pool, averaged across the two sequencing samples” value turned out to be 0.015%; the “Percentage of the pool, Seq I” value stood at 0.018%. Further, the “Percentage of the pool, Seq II” value stood at 0.012%.

On to CYSLRLGPETV, for which the “Counts (raw counts for peptide sequence), Seq I” value stood at 37; the “Counts (raw counts for peptide sequence), Seq II” value is given as 6; the “Percentage of the pool, averaged across the two sequencing samples” value is on record as 0.011%; the “Percentage of the pool, Seq I” value stood at 0.00846%. Moreover, the “Percentage of the pool, Seq II” value is 0.014%.

CFSRRSTSSQST: the “Percentage Seq I” value came to 0.018%, the “Percentage Seq II” value is reported as 0.019%, the “Percentage Average” value was 0.018% and the “Counts Seq I” value worked out at 77. For the same substance, the “Counts Seq II” value is 8.

Turning to CFAKRIVALHST, the “Counts (raw counts for peptide sequence), Seq I” value is given as 54; the “Counts (raw counts for peptide sequence), Seq II” value stood at 7; the “Percentage of the pool, averaged across the two sequencing samples” value was determined as 0.014%; the “Percentage of the pool, Seq I” value is 0.012%. The “Percentage of the pool, Seq II” value amounted to 0.016%.

For the substance SSWAQLPCRS, the “Percentage Seq I” value stood at 0.041%, the “Percentage Seq II” value is 0.051%, the “Percentage Average” value amounted to 0.046% and the “Counts Seq I” value stood at 180. The “Counts Seq II” value stood at 22.

With SAWGNRQIQY+, the “Percentage Seq I” value was 0.026%, the “Percentage Seq II” value worked out at 0.016%, the “Percentage Average” value is on record as 0.021% and the “Counts Seq I” value came out at 114. For the same substance, the “Counts Seq II” value came out at 7.

As to CFTLRVLDVSAV, the “Counts (raw counts for peptide sequence), Seq I” value was determined as 100; the “Counts (raw counts for peptide sequence), Seq II” value came out at 5; the “Percentage of the pool, averaged across the two sequencing samples” value worked out at 0.017%; the “Percentage of the pool, Seq I” value is reported as 0.023%. Also, the “Percentage of the pool, Seq II” value is on record as 0.012%.

For the substance HVFGNRSYTRG, the “Counts (raw counts for peptide sequence), Seq I” value was 46; the “Counts (raw counts for peptide sequence), Seq II” value was 7; the “Percentage of the pool, averaged across the two sequencing samples” value is reported as 0.013%; the “Percentage of the pool, Seq I” value is recorded as 0.011%. The “Percentage of the pool, Seq II” value is listed as 0.016%.

For the substance CFAGRLTIDAA, the “Counts (raw counts for peptide sequence), Seq I” value came out at 78; the “Counts (raw counts for peptide sequence), Seq II” value came to 1; the “Percentage of the pool, averaged across the two sequencing samples” value is given as 0.010%; the “Percentage of the pool, Seq I” value turned out to be 0.018%. For the same substance, the “Percentage of the pool, Seq II” value was 0.00232%.

Turning to YIVGSSDYTRG, the “Percentage Seq I” value is listed as 0.417%, the “Percentage Seq II” value stood at 0.388%, the “Percentage Average” value is 0.402% and the “Counts Seq I” value turned out to be 1825. Moreover, the “Counts Seq II” value is 167.

For the substance FVTGNRDRTRG, the “Percentage Seq I” value was 0.019%, the “Percentage Seq II” value was determined as 0.026%, the “Percentage Average” value stood at 0.022% and the “Counts Seq I” value is 81. The “Counts Seq II” value is 11.

As for TFRSRTSCGAV, the “Counts (raw counts for peptide sequence), Seq I” value is given as 51; the “Counts (raw counts for peptide sequence), Seq II” value is on record as 7; the “Percentage of the pool, averaged across the two sequencing samples” value was found to be 0.014%; the “Percentage of the pool, Seq I” value was 0.012%. Moreover, the “Percentage of the pool, Seq II” value came out at 0.016%.

As for AISGGRDYTRG, the “Counts (raw counts for peptide sequence), Seq I” value was 43; the “Counts (raw counts for peptide sequence), Seq II” value turned out to be 6; the “Percentage of the pool, averaged across the two sequencing samples” value stood at 0.012%; the “Percentage of the pool, Seq I” value turned out to be 0.010%. The “Percentage of the pool, Seq II” value is reported as 0.014%.
